Tests used:
Assay in all cases: fluorescence anisotropy
[1] = biological target: T1, [2Fe-2S]-IscR wild-type (Escherichia coli, UniProt P0AGK8 1-162)
T1 sequence: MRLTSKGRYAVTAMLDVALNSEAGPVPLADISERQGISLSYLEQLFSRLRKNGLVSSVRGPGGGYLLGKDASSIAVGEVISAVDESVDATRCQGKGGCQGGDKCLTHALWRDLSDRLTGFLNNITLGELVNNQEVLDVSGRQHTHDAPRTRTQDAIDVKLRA

[2] = biological target: T2, [2Fe-2S]-IscR-R59A (Escherichia coli, UniProt P0AGK8 1-162, R59A)
T2 sequence: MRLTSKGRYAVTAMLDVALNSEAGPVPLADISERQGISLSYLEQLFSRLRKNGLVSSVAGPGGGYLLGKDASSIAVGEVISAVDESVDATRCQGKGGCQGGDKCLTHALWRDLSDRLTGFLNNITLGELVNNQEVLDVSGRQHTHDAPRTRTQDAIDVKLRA

[3] = biological target: T3, [2Fe-2S]-IscR-E43A (Escherichia coli, UniProt P0AGK8 1-162, E43A)
T3 sequence: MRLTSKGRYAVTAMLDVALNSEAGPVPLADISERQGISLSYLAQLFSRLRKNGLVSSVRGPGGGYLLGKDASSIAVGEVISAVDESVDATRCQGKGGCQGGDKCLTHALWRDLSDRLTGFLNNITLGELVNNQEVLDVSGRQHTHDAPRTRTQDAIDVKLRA

[4] = biological target: T4, [2Fe-2S]-IscR-S40A (Escherichia coli, UniProt P0AGK8 1-162, S40A)
T4 sequence: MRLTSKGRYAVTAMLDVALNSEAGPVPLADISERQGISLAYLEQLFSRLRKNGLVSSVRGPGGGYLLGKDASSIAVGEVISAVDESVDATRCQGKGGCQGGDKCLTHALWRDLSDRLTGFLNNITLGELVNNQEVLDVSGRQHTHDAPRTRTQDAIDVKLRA

B1: iscRB 30-mer (type 1) (dsDNA)
DNA 1: AAATAGTTGACCATTTTACTCGGGAATGTC
DNA 2: GACATTCCCGAGTAAAATGGTCAACTATTT
- Kd [1]: 24 ± 1 nM
- binding result [2]: no binding
- Kd [3]: 21 ± 1 nM
- Kd [4]: 94 ± 3 nM

B2: iscRBcc (symmetrical CC) (dsDNA)
DNA 1: AAATAGCCGACCATTTTACTCGGGAATGTC
DNA 2: GACATTCCCGAGTAAAATGGTCGGCTATTT
- binding result [1]: binds

B3: hya 30-mer (type 2) (dsDNA)
DNA 1: ATAAATCCACACAGTTTGTATTGTTTTGTG
DNA 2: CACAAAACAATACAAACTGTGTGGATTTAT
- binding result [3]: binds

— paper PMC3676455
